# Values joined by “and” are separate entries in the source; they are usually repeats but may differ in a detail not shown here. Equal entries are not always repeated.
# T1: human isoleucine zipper-CD40L (IZ-hCD40L) (human, UniProt P29965 113-261)
# T1 sequence: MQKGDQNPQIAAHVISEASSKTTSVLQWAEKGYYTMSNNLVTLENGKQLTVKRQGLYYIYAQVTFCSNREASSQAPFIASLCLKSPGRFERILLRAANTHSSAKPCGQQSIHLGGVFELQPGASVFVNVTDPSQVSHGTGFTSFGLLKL
# Molecular target: T1, human isoleucine zipper-CD40L …
# Experiment: cell-based or functional assay
row,hIZCD40L-driven Human B Cell Proliferation EC50,Binder
1,79 nM and 76 nM,BMS2h-572-12 (other) VH: EVQLLESGGGLVQPGGSLRLSCAASGFTFNWQLMGWARQAPGKGLEWVSGIEGPGDVTYYADSVKGRFTISRDNSKNTLYLQMNSLRAEDTAVYYCAKVGKESNSDYRGQGTLVTVSS
2,357 nM and 305 nM,BMS2h-572-22 (other) VH: EVQLFESGGGSVQPGGSLRLSCAASGFTFNWQLMGWVRQAPGKGLEWVSGIEGPGDVTYYADSVKGRFTISRDNSKNTLYLQMNSLRAEDTAVYYCAKVGKESNSDYRGQGTLVTVSS
3,5800 nM,BMS2h-731 (other) VL: DIQMTQSPPSLSASVGDRVTITCRASQLISSHLDWYQQKPGKAPKLLVYDASELQSGVPSRFSGSGSGTDFTLTISSLQPEDFATYYCQQHRSLPFTFGQGTKVEIKR
4,6400 nM,BMS2h-725 (other) VH: EVQLLESGGGLVQPGGSLRLSCAASGFTFSAYTMGWVRQAPGKGLEWVSLIGDRGSWTYYADSVKGRFTISRDNSKNTLYLQMNSLRAEDTAVYYCAEPSDPTKFDYWGQGTLVTVSS
5,> 7000 nM,BMS2h-725-19 (other) VH: EVQLLESGGGLVQPGGSLRLSCAASGFTFSAYTMGWVRQAPGKGLEWVSLIGDRGSWTYYADSVKGRFTISRDNSKNTLYLQMNSLRAEDTAVYYCADPSDPTKFVYWGQGTLVTVSS
6,> 7000 nM,BMS2h-725-9 (other) VH: EVQLLESGGGLVQPGGSLRLSCAASGFTFSAYTMGWVRQAPGMGLEWVSLIGDRGSWTYYADSVKGRFTISRDNSKNTLYLQMNSLRAEDTAVYYCAEPSDPTKFDYWGQGTLVTVSS
7,> 7000 nM,BMS2h-725-2 (other) VH: EVQLLESGGGLVQPGGSLRLSCAASGFTFSAYTMGWVRQAPGKGLEWVSLIGDRGSWTYYADSVKGRFTISRDNSKNTLYLQMNSLRAEDTAVYYCAEPSDPTKFVYWGQGTPVTVSS
8,> 7000 nM,BMS2h-726 (other) VH: EVQLLESGGGLVQPGGSLRLSCAASGFTFDNYKMYWVRQAPGKGLEWVSSISEIGNLTYYADSVKGRFTISRDNSKNTLYLQMNSLRAEDTAVYYCAIALTRFDYWGQGTLVTVSS
9,> 7000 nM,BMS2h-707 (other) VH: EVQLLESGGGLVQPGGSLRLSCAASGFTFETYRMSWVRQAPGKGLEWVSAIDQEGSATYYADSVKGRFTISRDNSKNTLYLQMNSLRAEDTAVYYCAKNSGTRPGLRFDYWGQGTLVTVSS
10,> 7000 nM,BMS2h-706 (other) VH: EVQLLESGGGLVQPGGSLRLSCAASGFTFGSYKMLWVRQAPGKGLEWVSSITNSGTETYYADSVKGRFTISRDNSKNTLYLQMNSLRAEDTAVYYCAKSMYPDLEIVHFDYWGQGTLVTVSS
11,> 7000 nM,BMS2h-722 (other) VH: EVQLLESGGGLVQPGGSLRLSCAASGFTFTKYPMAWVRQAPGKGLEWVSGIDANGNRTYYADSVKGRFTISRDNSKNTLYLQMNSLRAEDTAVYYCAEGTWRRHFAIFDYWGQGTLVTVSS
12,> 7000 nM,BMS2h-712 (other) VH: EVQLLESGGGLVQPGGSLRLSCAASGFTFPEYEMKWVRQAPGKGLEWVSTITPSGGHTYYADSVKGRFTISRDNSKNTLYLQMNSLRAEDAAVYYCAIPLSSFDYWGRGTLVTVSS
13,> 7000 nM,BMS2h-702 (other) VH: EVQLLESGGGLVQPGGSLRLSCAASGFTFAEYEMMWARQAPGKGLEWVSRIAGNGSRTYYADSVKGRFTISRDNSKNTLYLQMNSLRAEDTAVYYCAIMLSHFDYWGQGTLVTVSS
14,600 nM,BMS2h-719 (other) VH: EVQLLESGGGLVQPGGSLRLSCAASGFTFKRYEMTWVRQAPGKGLEWVSSISSDGSFTYYADSVKGRFTISRDNSKNTLYLQMNSLRAEDTAVYYCAEPFTEFDYWGQGTLVTVSS
15,57 nM and 60 nM,BMS2h-719-218 (other) VH: EVQLLESGGGLVQPGGSLRLSCAASGFTFKRYEMMWVRQAPGKGLEWVSSISSDGSFTYYAESVKGRFTISRDNSKNTLYLQMNSLRAEDTAVYYCAEPFTEFDYWGHGTLVTVSS
16,66 nM and 89 nM,BMS2h-719-214 (other) VH: EVQLLESGGGLVQPGGSLRLSCAASGFTFKRYEMMWVRQAPGKGLEWVSSISSDGSFTYYADSVKGRFTISRDNSKNTLYLQMNSLRAEDTAVYYCADPFTEFDYWGHGTLVTVSS
17,81 nM and 96 nM,BMS2h-719-203 (other) VH: EVQLLESGGGLVQPGGSLRLSCAASGFTFNSYEMMWVRQAPGKGLEWVSSISSDGSFTYYADSVKGRFTISRDNSKNTLYLQMNSLRAEDTAVYYCAEPFTEFDYWGHGTLVTVSS
18,62 nM and 98 nM,BMS2h-719-213 (other) VH: EVQLLESGGGLVQPGGSLRLSCAASGFTFKRYEMMWVRQAPGKGLEWVSSISSDGSFTYYADSVKGRFTISRDNSKNTLYLQMNSLRAEDTAVYYCADPFTEMDYWGHGTLVTVSS
19,92 nM and 91 nM,BMS2h-719-215 (other) VH: EVQLLESGGGLVQPGGSLRLSCAASGFTFKRYEMMWVRQAPGKGLEWVSSISSDGSFTYYADSVKGRFTISRDNSKNTLYLQMNSLRAEDTAVYYCAEPFTELDYWGHGTLVTVSS
20,> 7000 nM,BMS2h-710 (other) VH: EVQLLESGGGLVQPGGSLRLSCAASGFTFNTYSMSWVRQAPGKGLEWVSWIDADGWVTYYADSVKGRFTISRDNSKNTLYLQMNSLRAEDTAVYYCAQTGHTFDYWGQGTLVTVSS
21,> 7000 nM,BMS2h-703 (other) VH: EVQLLESGGGLVQPGGSLRLSCAASGFTFYNYDMSWVRQAPGKGLEWVSGIDSMGLVTYYADSVKGRFTISRDNSKNTLYLQMNSLRAEDTAVYYCAKGSNASDWVVFDYWGQGTLVTVSS
22,> 7000 nM,BMS2h-723 (other) VH: EVQLLESGGGLVQPGGSLRLSCAASGFTFDLYDMMWVRQAPGKGLEWVSSISDLGTLTYYADSVKGRFTISRDNSKNTLYLQMNSLRAEDTAVYYCAKNGFRVTSNDRRFDYWGQGTLVTVSS
23,> 7000 nM,BMS2h-730 (other) VL: DIQMTQSPSSLSASVGDRVTITCRASQDIKDWLHWYQQKPGKAPKLLIYFASGLQSGVPSRFSGSGSGTDFTLTISSLQPEDSATYYCQQHYSTPYTSGQGTKVEIKR
24,> 7000 nM,BMS2h-717 (other) VH: EVQLLESGGGLVQPGGSLRLSCAASGFTFSSYEMAWVRQAPGKGLEWVSRIEPDGSNTYYADSVKGRFTISRDNSKNTLYLQMNSLRAEDTAVYYCAKGPDNFTMFDYWGQGTLVTVSS

# Reference: patent publication US20160075790A1 (Bristol-Myers Squibb, published 2016)
